Measured values: publication PMC5925078

Tests used:
[1] = target: TNFR2 variant in which the intracellular binding site for TRAF2 has been substituted by YFP, P20333; assay: cellular binding study with GpL (luciferase) fusion protein; competition; HEK293 cells transiently expressing TNFR1 or TNFR2 (YFP deletion mutants); preincubation with purified sTNF or PGRN at 37°C; 10-20 ng/ml GpL-TNF; EV-transfected cells as non-specific binding
[2] = target: cytosolic deletion mutant of TNFR1 in which the death domain has been replaced by YFP, P19438; assay: as above

B1: GpL-Flag-TNC-TNF (ligand)
chain: ACGCAAAPDIKDLLSRLEELEGLVSSLREQSDKPVAHVVANPQAEGQLQWLNRRANALLANGVELRDNQLVVPSEGLYLIYSQVLFKGQGCPSTHVLLTHTISRIAVSYQTKVNLLSAIKSPCQRETPEGAEAKPWYEPIYLGGVFQLEKGDRLSAEINRPDYLDFAESGQVYFGIIAL
B1 was tested, and the specific binding of 20 ng/ml GpL-TNF, fold over the unspecific background (the pair that is blocked) [1] was > 2400 fold and the specific binding of 20 ng/ml GpL-TNF, fold over the unspecific background (the pair that is blocked) [2] was > 800 fold.
